Experimental data taken from the DeepSol protein solubility set.

Test: soluble on expression in E. coli; label from the status in PepcDB or PDB records

Sequence: MRINFEKANSNHINIIFSWLKEPFIQEFWDNTQAHKDDILNFINGRTEPSSYADGKYVYWIASGNGHPFAMLMTIQETSEDEIDDIKLINLSKTGHSYGIDYMIGDKNYFGIGYGARTLIEFIDFFIKEVDPKADTFLIDPASDNPRAKHVYIKAGF
- soluble on expression in E. coli: soluble

Sequence: MVLNSMRLFYILSQRDASSKNFNSSIYSRRSSRNSGCPGALFRSGRAVPFERVVGQQYFLKAYAILHSLNICRVEAGYIFDRKKTKFQDFLRFGRAGMASGVGGGSEGGPDDVKNSYIRVNGEPEIVYQ
- soluble on expression in E. coli: not soluble

Sequence: GEMDERLLQKYRAQVFEWGGCFDKMFEALKSLIYLSEFENSEFDDEERHLLTLCIKHKISDYRTMTSQVLQEQTKQLNNDELVKICSEYVFSLRKDIKAFLQSFEDCVDRLVEKSFFSKFFKLKVKSDISRYKLEFGLCSLEDSKKIHQDAFTLLCEHPDKIEQLPLGFIQNLAYILSEKYGEKKQVFNMLNSLGKILELQIKEQENMDRKAQITVYLQGIKDYIEK
- soluble on expression in E. coli: soluble

Sequence: MSLTDIRDHRDMLTVHHLNNSRSQRVLWLLEELDTPYEIKRYQRQPDMMAPKELRAVHPLGKSPVITDNGNTIAESGAIIEYIVGTYGNGRLIPPPNTPERLRYTYWLHYAEGSAMPPLLLKLLFSMMPQRAPALVRPLVKMVASGALTGFVDPQLKLHMDYWESELGKAAYFAGDEFTAADIQMSFPLEAAAARGGLDQRYPKAQAWLERIHARPAYNRALEKGGPYEIGKAEGHHHHHH
- soluble on expression in E. coli: soluble

Sequence: MGSDKIHHHHHHMKIGVLSQFPELYSTRRLVEACESRGHEAWVINPINCYMNINSVKPSIHLEGEEVPMFDAIIPRIHASVTFYGCAVVRQFEMMGVFAANDSISIARSRDKLRALQLLSRKGIGMPVTGFANKPNNIPDLINMVGGAPLVIKLLEGTQGIGVVLAETRKAAESVIEAFLGLKANIMVQEYIKEANGSDIRCFVVGDKVVAAMRRQGPEGDFRSNLHLGGSAEPVKITPQERKSAVAAAKAMGLVVAGVDILRSARGPLVLEVNSAPGIEGIEQATGIKVAEPIVEYIEKVVAARRANHQVIA
- soluble on expression in E. coli: not soluble

Sequence: MAHHHHHHMASVPFTEEDLHELYTWVDEIPISRQKRNIARDFADGCSVAEILKFFFPKLVDLHNYVPAMSHAKKLDNWNTLNAKVLRKLYFEVPPEEVEDIVAAVPGAIERFLRALRVKVAQIKARRDEMLRMGEIQAHVNAHHVDPSPSQPQPREGGHVRDGGASAATAHRGSGRPSSPAAPAGPVASSRGSSSAGPQAPPRQTQPQRQPTPPLVNEAASLTQALREKDYTIQELRETVAILSEKIVKLEELVRVKDEKLNQYRQKVGRVPA
- soluble on expression in E. coli: soluble

Sequence: MSLSDVSSNYWAAPFIQQLSQRGVIAGFPDGSFRPEEAVTRAQFAAMVNKAFQKSQQRSPINFADVPSNYWASSAIQQAYTIGFLSGYPGNRFEPNQAIPRQQVLVSLANGLEYSPIGNTESTLQYFNDASNIASYARSPMAAATEKQIVVNYPNVKFLNPTATATRAQVAAFIYQALVSSNQASAINSEGHHHHHH
- soluble on expression in E. coli: soluble

Sequence: MSLKITSIAVYQVDLPLREGNYAWSEGKSVSVFDSTVVRIETDSGIFGHGEVCPLGPVYLPAYAAGVRTGVAEIAPALIGDDPTELGKLNRKMDYLLKGHPYVKSALDVACWDIFGQAAGLPICTLLGGRYGEDFTLYRAISQRPAAEMAESVAMYRGEGYRRFQLKVGGDPNEDILRIFEAAEMLEPGDKLIADANTGWLKHEALRVVNAVRDVDVYIEQPCPSYEDCRAIRERTTLPFILDEVIDSVDMIVRCAADRAADVVNLKISKLGGLTKARQARDLCASLGLAMTIEDSWGGDIVTAAIAHLAHSTPTDYLFSSTDFNSYVTKSIADGAPQRDNGRLAAAREPGLGVKPKLDVLGKPVATYGKEGHHHHHH
- soluble on expression in E. coli: soluble

Sequence: MSHLNYNHLYYFWMVCKQGSVTKAADALFLTPQTVTGQIKALEDRLDGKLTKRNGRSIEPTELGQLVFKYADRMFGLSYEMLDIVNYSQRSNLLFDVGVADALSKRLVSKILLTSVPGDNRIHLRCFESTHEMLLEQLAQHKLDMILSDCPVDSSQSPGLFSKKLGESRMSFFSFGDVDFAPFPAVLQSKKLLVPGSRTAMGRKVRQWFDRQGLQPHILGEFDDSALMKAFAIYHSDAVFMAPSFYVSEVDAESSLKLIGHVDEIKEEYYVIFAERMIQHPAVKNVCDADFTNLFL
- soluble on expression in E. coli: not soluble

Sequence: TEQTNVLVLCAGGGTSGLLANALNKAAEEYHVPVKAAAGGYGAHMDIMKEYQLIILAPQVASNYEDIKQDTDRLGIKLAKTQGAEYIKLTRDGQAALDFVQQQFEN
- soluble on expression in E. coli: not soluble

Sequence: MAHHHHHHMQLMRAVTLKGFGDTDMLQISRIPKAVITRGRDILIKVSAAGVNRADAAQRKGHYLPPKGSSEVLGLEVSGIVEEVGVDVKDFKEGDKVMALLPGGGYAEYAVAHEGSVMHIPQGYSFIEAAAIPEAFLTAWQALKYHGDCCKGQKVLIHAGASGVGTAAAQLVEKYFQATALTTSSESKVEVCKNFASINFTRTPDETGMCFSPKVKRLLGEGAINLVLDSVFGGSYISEDAAVLAKDGRIVVLAFMGGATVHLNCLPLLRQRAHVMFSKLRCQSDDYKQNLVDTFEEAVIPYMNERLIVPVANKTYPLEEVAQAHMRLDDSKAWGKIVLTFNSHLSATSTNPPPTLTA
- soluble on expression in E. coli: not soluble

Sequence: GSHMFKCMEALGMESGEIHSDQITASSQYSTNWSAERSRLNYPENGWTPGEDSYREWIQVDLGLLRFVTAVGTQGAISKETKKKYYVKTYKIDVSSNGEDWITIKEGNKPVLFQGNTNPTDVVVAVFPKPLITRFVRIKPATWETGISMRFEVYGCKITDYPCSGMLGMVSGLISDSQITSSNQGDRNWMPENIRLVTSRSGWALPPAPHSYINEWLQIDLGEEKIVRGIIIQGGKHRENKVFMRKFKIGYSNNGSDWKMIMDDSKRKAKSFEGNNNYDTPELRTFPALSTRFIRIYPERATHGGLGLRMELLGCEVE
- soluble on expression in E. coli: soluble

Sequence: SAEHVLTMLNEHEVKFVDLRFTDTKGKEQHVTIPAHQVNAEFFEEGKMFDGSSIGGWKGINESDMVLMPDASTAVIDPFFADSTLIIRCDILEPGTLQGYDRDPRSIAKRAEDYLRATGIADTVLFGPEPEFFLFDDIRFGASISGSHVAIDDIEGAWNSSTKYEGGNKGHRPGVKGGYFPVPPVDSAQDIRSEMCLVMEQMGLVVEAHHHEVATAGQNEVATRFNTMTKKADEIQIYKYVVHNVAHRFGKTATFMPKPMFGDNGSGMHCHMSLAKNGTNLFSGDKYAGLSEQALYYIGGVIKHAKAINALANPTTNSYKRLVPGYEAPVMLAYSARNRSASIRIPVVASPKARRIEVRFPDPAANPYLCFAALLMAGLDGIKNKIHPGEPMDKNLYDLPPEEAKEIPQVAGSLEEALNALDLDREFLKAGGVFTDEAIDAYIALRREEDDRVRMTPHPVEFELYYSV
- soluble on expression in E. coli: soluble

Sequence: QVQLVQSGGGLVKPGGSLRLSCAASGFTFSSYAMSWVRQAPGKGLEWVSAISGSGGSTYYADSVKGRFTISRDNSKNTLYLQMSSLRAEDTAVYYCARPYLTYPQRRGPQNVSPFDNWGQGTMVTVSSASTKGPSVFPLAPSSKSTSGGTAALGCLVKDYFPEPVTVSWNSGALTSGVHTFPAVLQSSGLYSLSSVVTVPSSSLGTQTYICNVNHKPSNTKVDKKVEPKSCAAAHHHHHHGAAEQKLISEEDLNGAA
- soluble on expression in E. coli: soluble

Sequence: MKNILVFLMLGVMLSALQELRYPSGYRVNGSRVFYTYIELTEIDMTTFEILNERYAKDKNAVYYEGKVIVNVDPEDFELLGDFFGKTKNNIYIGNTIIKDADINSFELLGHSRSRDKNHVFFADKILKNADPATYIVFNNKYAKDKNHVYFWDKEIENADAPTFEVLNGEYGKDKNRVYYNSRVVRKADPATFRILEGPFSKDKNYVYVTGEIFEKADVKTFQTLGDYGYAKDKRYVYRYNKILEGEKPADFLPPPQPVIMY
- soluble on expression in E. coli: not soluble

Sequence: KKVYLIHGWGANRHAFDDLMPRLPATWPVSAVDLPGHGDAPFAQPFDIEAAADGIAAQIDTSADILGWSLGGLVALYLAARHPDKVRSLCLTASFARLTAAEDYPEGLAAPALGKMVGAFRTDYAKHIKQFLQLQLLHTPDAAEIIGRILPDLARCGTPQALQEALDAAERADARHLLDKIDVPVLLVFGGKDAITPLRMGEYLHRHLKGSRLVVMEKAAHAPFLSHAEAFAALCRDFVEG
- soluble on expression in E. coli: not soluble

Sequence: MAKKDEVGGRVLQDVFLDWAKKYGPVVRVNVFHKTSVIVTSPESVKKFLMSTKYNKDSKMYRALQTVFGERLFGQGLVSECNYERWHKQRRVIDLAFSRSSLVSLMETFNEKAEQLVEILEAKADGQTPVSMQDMLTYTAMDILAKAAFGMETSMLLGAQKPLSQAVKLMLEGITASRNTLAKFLPGKRKQLREVRESIRFLRQVGRDWVQRRREALKRGEEVPADILTQILKAEEGAQDDEGLLDNFVTFFIAGHETSANHLAFTVMELSRQPEIVARLQAEVDEVIGSKRYLDFEDLGRLQYLSQVLKESLRLYPPAWGTFRLLEEETLIDGVRVPGNTPLLFSTYVMGRMDTYFEDPLTFNPDRFGPGAPKPRFTYFPFSLGHRSCIGQQFAQMEVKVVMAKLLQRLEFRLVPGQRFGLQEQATLKPLDPVLCTLRPRGWQPAPPPPPCHHHH
- soluble on expression in E. coli: soluble

Sequence: GMIYSKVENFINENKQNAIFTEGASHENIGRIEENLQCDLPNSYKWFLEKYGAGGLFGVLVLGYNFDHASVVNRTNEYKEHYGLTDGLVVIEDVDYFAYCLDTNKMKDGECPVVEWDRVIGYQDTVADSFIEFFYNKIQEAKDDWDEDEDWDD
- soluble on expression in E. coli: soluble

Sequence: MARFIAQLLLLASCVAAGQAVTAFLGERVTLTSYWRRVSLGPEIEVSWFKLGPGEEQVLIGRMHHDVIFIEWPFRGFFDIHRSANTFFLVVTAANISHDGNYLCRMKLGETEVTKQEHLSVVKPLTLSVHSERSQFPDFSVLTVTCTVNAFPHPHVQWLMPEGVEPAPTAANGGVMKEKDGSLSVAVDLSLPKPWHLPVTCVGKNDKEEAHGVYVSGYLSQ
- soluble on expression in E. coli: soluble

Sequence: MGHHHHHHSHMDRWSAGTLENSILNAYLHTIRGSQHFLYIENQFFISCSDGRTVLNKVGDEIVDRILKAHKQGWCYRVYVLLPLLPGFEGDISTGGGNSIQAILHFTYRTLCRGEYSILHRLKAAMGTAWRDYISICGLRTHGE
- soluble on expression in E. coli: soluble

Sequence: VRFVSELCALHGTDPVPMALIMEPVSKWSPSQVVDWMKGLDDCLQQYIKNFEREKISGDQLLRITHQELEDLGVSRIGHQELILEAVDLLCALNYGLETENLKTLSHKLNASAKNLQNFITGRRRSGHYDGRTSRKLPNDFLTSVVDLIGAAKSLLAWLDRSPFAAVTDYSVTRNNVIQLCLELTTIVQQDCTVYETENKILHVCKTLSGVCDHIISLSSDPLVSQSAHLEVIQLANIKPSEGLGMYIKSTYDGLHVITGTTENSPADRCKKIHAGDEVIQVNHQTVVGWQLKNLVNALREDPSGVILTLKKRPQSMLTSAPALLKNMRWKPLALQPLIPRSPTSSVATPSSTISTPTKRDSSALQDLYIPPPPAEPYIPRDEKGNLPCEDLRGHMVGKPVHKGSESPNSFLDQEYRKRFNIVEEDTVLYCYEYEKGRSSSQGRRESTPTYGKLRPISMPVEYNWVGDYEDPNKMKRDSRRENSLLRYMSNEKIAQEEYMFQRNSKKDTGKKSKKKGDKSNSPTHYSLLPSLQMDALRQDIMGTPVPETTLYHTFQQSSLQHKSKKKNKGPIAGKSKRRISCKDLGRGDCEGWLWKKKDAKSYFSQKWKKYWFVLKDASLYWYINEEDEKAEGFISLPEFKIDRASECRKKYAFKACHPKIKSFYFAAEHLDDMNRWLNRINMLTAGYAERERIKQEQDYWSESDKEEADTPSTPKQDSPPPPYDTYPRPPSMSCASPYVEAKHSRLSSTETSQSQSSHEEFRQEVTGSSAVSPIRKTASQRRSWQDLIETPLTSSGLHYLQTLPLEDSVFSDSAAISPEHRRQSTLPTQKCHLQDHYGPYPLAESERMQVLNGNGGKPRSFTLPRDSGFNHCCLMLQLVPVTHRMTCNPQRWRKRRRRRRRKGRQQGKT
- soluble on expression in E. coli: soluble

Sequence: AIYVDLPNRQLKVKVADRRVISTTDAERQAVTPPGLQEAINDLVKKYTLARAFVRPSGTEDIVRVYAEANSQESADRLAYEVSLLVFQLAGGIGERPQP
- soluble on expression in E. coli: soluble
